# Results reported in patent US10098938B2, “Peptides and combination of peptides for use in immunotherapy against various cancers” (immatics biotechnologies GmbH, priority 2015, dated 2018).
# What was measured:
# HLA-A*02 = HLA-A*02 (Homo sapiens, UniProt P04439, D140Y/D185E/D98H/E176V/E277Q/G131W/G231S/I119V/I121R/I166T/I218V/L300P/N151K/N90K/P208A/P217A/Q86G/Q94H/R138H/R169H); experiment: MHC binding assay, UV-ligand exchange with β2m ELISA, HLA-A*02; conditions: binding to HLA-A*02 ranged by peptide exchange yield
# Text: (§1) Candidate peptides for T cell based therapies according to the present invention were further tested for their MHC binding capacity (affinity). The individual peptide-MHC complexes were produced by UV-ligand exchange, where a UV-sensitive peptide is cleaved upon UV-irradiation, and exchanged with the peptide of interest as analyzed. Only peptide candidates that can effectively bind and stabilize the peptide-receptive MHC molecules prevent dissociation of the MHC complexes. To determine the yield of the exchange reaction, an ELISA was performed based on the detection of the light chain (β2m) of stabilized MHC complexes. The assay was performed as generally described in Rodenko et al. (Rodenko et al., 2006).
# (§2) 96 well MAXISorp plates (NUNC) were coated over night with 2 ug/ml streptavidin in PBS at room temperature, washed 4× and blocked for 1 h at 37° C. in 2% BSA containing blocking buffer. Refolded HLA-A*02:01/MLA-001 monomers served as standards, covering the range of 15-500 ng/ml. Peptide-MHC monomers of the UV-exchange reaction were diluted 100 fold in blocking buffer. Samples were incubated for 1 h at 37° C., washed four times, incubated with 2 ug/ml HRP conjugated anti-β2m for 1 h at 37° C., washed again and detected with TMB solution that is stopped with […]. Absorption was measured at 450 nm. Candidate peptides that show a high exchange yield (preferably higher than 50%, most preferred higher than 75%) are generally preferred for a generation and production of antibodies or fragments thereof, and/or T cell receptors or fragments thereof, as they show sufficient avidity to the MHC molecules and prevent dissociation of the MHC complexes.
# CD8+ T cells = experiment: In vitro immunogenicity: T-cell priming with aAPCs loaded with peptide/MHC and anti-CD28, pMHC multimer readout; format: cell-based, human; conditions: in vitro immunogenicity of HLA class I peptides; for Wells positive [%]: pMHC multimer readout after T-cell priming; for Wells: CD8+ T cells of healthy donors, three stimulation cycles, multimer staining
# Text: In order to obtain information regarding the immunogenicity of the TUMAPs of the present invention, the inventors performed investigations using an in vitro T-cell priming assay based on repeated stimulations of CD8+ T cells with artificial antigen presenting cells (aAPCs) loaded with peptide/MHC complexes and anti-CD28 antibody.
# In order to perform in vitro stimulations by artificial antigen presenting cells loaded with peptide-MHC complex (pMHC) and anti-CD28 antibody, the inventors first isolated CD8+ T cells from fresh HLA-A*02 leukapheresis products via positive selection using CD8 microbeads (Miltenyi Biotec, Bergisch-Gladbach, Germany) of healthy donors obtained from the University clinics Mannheim, Germany, after informed consent.
# PBMCs and isolated CD8+ lymphocytes were incubated in T-cell medium (TCM) until use consisting of RPMI-Glutamax (Invitrogen, Karlsruhe, Germany) supplemented with 10% heat inactivated human AB serum (PAN-Biotech, Aidenbach, Germany), 100 U/ml Penicillin/100 μg/ml Streptomycin (Cambrex, Cologne, Germany), 1 mM sodium pyruvate (CC Pro, Oberdorla, Germany), 20 μg/ml Gentamycin (Cambrex). 2.5 ng/ml IL7 (PromoCell, Heidelberg, Germany) and 10 U/ml IL-2 (Novartis Pharma, Nürnberg, Germany) were also added to the TCM at this step.
# Generation of pMHC/anti-CD28 coated beads, T-cell stimulations and readout was performed in a highly defined in vitro system using four different pMHC molecules per stimulation condition and 8 different pMHC molecules per readout condition.
# The purified co-stimulatory mouse IgG2a anti human CD28 Ab 9.3 (Jung et al., 1987) was chemically biotinylated using Sulfo-N-hydroxysuccinimidobiotin as recommended by the manufacturer (Perbio, Bonn, Germany). Beads used were 5.6 μm diameter streptavidin coated polystyrene particles (Bangs Laboratories, Illinois, USA).
# pMHC used for positive and negative control stimulations were A*0201/MLA-001 (peptide […] (SEQ ID NO. 303) from modified Melan-A/MART-1) and A*0201/DDX5-001 ([…] from DDX5, SEQ ID NO. 304), respectively.
# 800.000 beads/200 μl were coated in 96-well plates in the presence of 4×12.5 ng different biotin-pMHC, washed and 600 ng biotin anti-CD28 were added subsequently in a volume of 200 μl. Stimulations were initiated in 96-well plates by co-incubating […] CD8+ T cells with 2×10^5 washed coated beads in 200 μl TCM supplemented with 5 ng/ml IL-12 (PromoCell) for 3 days at 37° C. Half of the medium was then exchanged by fresh TCM supplemented with 80 U/ml IL-2 and incubating was continued for 4 days at 37° C. This stimulation cycle was performed for a total of three times. For the pMHC multimer readout using 8 different pMHC molecules per condition, a two-dimensional combinatorial coding approach was used as previously described (Andersen et al., 2012) with minor modifications encompassing coupling to 5 different fluorochromes. Finally, multimeric analyses were performed by staining the cells with Live/dead near IR dye (Invitrogen, Karlsruhe, Germany), CD8-FITC antibody clone SK1 (BD, Heidelberg, Germany) and fluorescent pMHC multimers. For analysis, a BD LSRII SORP cytometer equipped with appropriate lasers and filters was used. Peptide specific cells were calculated as percentage of total CD8+ cells. Evaluation of multimeric analysis was done using the FlowJo software (Tree Star, Oregon, USA). In vitro priming of specific multimer+ CD8+ lymphocytes was detected by comparing to negative control stimulations.
# HLA-A*24 = experiment: MHC binding assay, UV-ligand exchange with β2m ELISA, HLA-A*24; parameters: species or system human; conditions: binding to HLA-A*24 ranged by peptide exchange yield
# Text: as §1, §2
Peptide exchange (HLA-A*02),Substance,further results
++++ (> = 75% = ++++),1 (LLYPEPWSV; listed as Homo sapiens) [compound 1],
++++ (> = 75% = ++++),3 (KLEENGDLYL; listed as Homo sapiens) [compound 3],
++++ (> = 75% = ++++),4 (KLMPGTYTL; listed as Homo sapiens) [compound 4],Wells positive [%] (CD8+ T cells): + (<20% = +)
++++ (> = 75% = ++++),12 (GLLPLLHRA; listed as Homo sapiens) [compound 12],Wells positive [%] (CD8+ T cells): ++++ (> = 70% = ++++)
++++ (> = 75% = ++++),14 (ILAKDLFEI; listed as Homo sapiens) [compound 14],
++++ (> = 75% = ++++),16 (YTLDIPVLFGV; listed as Homo sapiens) [compound 16],
++++ (> = 75% = ++++),34 (FLLATEVVTV; listed as Homo sapiens) [compound 34],
+ (<20% = +),42 (LLDSVSRL; listed as Homo sapiens) [compound 42],
++++ (> = 75% = ++++),51 (LLFSRLCGA; listed as Homo sapiens) [compound 51],
+ (<20% = +),82 (FIFDEAEKL; listed as Homo sapiens) [compound 82],
++++ (> = 75% = ++++),84 (ALCPRIHEV; listed as Homo sapiens) [compound 84],
++++ (> = 75% = ++++),92 (GLLFSLRSV; listed as Homo sapiens) [compound 92],
++++ (> = 75% = ++++),95 (GLLGSLFFL; listed as Homo sapiens) [compound 95],
+ (<20% = +),100 (ALLGMIIVGV; listed as Homo sapiens) [compound 100],
++++ (> = 75% = ++++),112 (SLGKFTFDV; listed as Homo sapiens) [compound 112],
+ (<20% = +),120 (VTPVTVSAV; listed as Homo sapiens) [compound 120],
++++ (> = 75% = ++++),125 (SLADYEHFV; listed as Homo sapiens) [compound 125],
++++ (> = 75% = ++++),126 (QMFQYFITV; listed as Homo sapiens) [compound 126],
++++ (> = 75% = ++++),129 (RLQDILWFL; listed as Homo sapiens) [compound 129],
++++ (> = 75% = ++++),133 (ALLPRLHQL; listed as Homo sapiens) [compound 133],

Peptide exchange (HLA-A*02),Substance,further results
++++ (> = 75% = ++++),147 (YLMDDTVEI; listed as Homo sapiens) [compound 147],
++++ (> = 75% = ++++),153 (FISERVEVV; listed as Homo sapiens) [compound 153],
,158 (HYSQELSLLYL; listed as Homo sapiens) [compound 158],Wells positive [%] (CD8+ T cells): + (<20% = +); Peptide exchange (HLA-A*24): ++++ (> = 75% = ++++)
,159 (LYNKGFIYL; listed as Homo sapiens) [compound 159],Wells positive [%] (CD8+ T cells): ++++ (> = 70% = ++++); Peptide exchange (HLA-A*24): ++++ (> = 75% = ++++)
,163 (DYLKGLASF; listed as Homo sapiens) [compound 163],Wells positive [%] (CD8+ T cells): + (<20% = +); Peptide exchange (HLA-A*24): ++++ (> = 75% = ++++)
,165 (DYTTWTALL; listed as Homo sapiens) [compound 165],Wells positive [%] (CD8+ T cells): + (<20% = +); Peptide exchange (HLA-A*24): ++++ (> = 75% = ++++)
,167 (NYINRILKL; listed as Homo sapiens) [compound 167],Wells positive [%] (CD8+ T cells): + (<20% = +); Peptide exchange (HLA-A*24): ++++ (> = 75% = ++++)
,204 (TYELRYFQI; listed as Homo sapiens) [compound 204],Wells positive [%] (CD8+ T cells): + (<20% = +); Peptide exchange (HLA-A*24): ++++ (> = 75% = ++++)
++++ (> = 75% = ++++),229 (AILAHLNTV; listed as Homo sapiens) [compound 229],
++++ (> = 75% = ++++),245 (SLLDLPLSL; listed as Homo sapiens) [compound 245],
++++ (> = 75% = ++++),248 (YLDRFLAGV; listed as Homo sapiens) [compound 248],
++++ (> = 75% = ++++),249 (GLCERLVSL; listed as Homo sapiens) [compound 249],Wells positive [%] (CD8+ T cells): + (<20% = +)
++++ (> = 75% = ++++),257 (GLYTDPCGV; listed as Homo sapiens) [compound 257],
++++ (> = 75% = ++++),258 (LLSERFINV; listed as Homo sapiens) [compound 258],
,292 (GMMTAILGV; listed as Homo sapiens) [compound 292],Wells (CD8+ T cells): + (<20% = +)
,293 (FLVDGSWSI; listed as Homo sapiens) [compound 293],Wells (CD8+ T cells): + (<20% = +)
,296 (TYVDSSHTI; listed as Homo sapiens) [compound 296],Wells (CD8+ T cells): + (<20% = +)
,298 (RYLEGTSCI; listed as Homo sapiens) [compound 298],Wells (CD8+ T cells): + (<20% = +)
,300 (AYVLRLETL; listed as Homo sapiens) [compound 300],Wells (CD8+ T cells): + (<20% = +)
,301 (AYKPGALTF; listed as Homo sapiens) [compound 301],Wells (CD8+ T cells): + (<20% = +)
